From the RNAGym collection of RNA variant scans (doi:10.7554/elife.80360)

B1: CPEB3 Ribozyme (parent)
chain: GGGGGCCACAGCAGAAGCGUUCACGUCGCGGCCCCUGUCAGAUUCUGGUGAAUCUGCGAAUUCUGCUGU

Variants of: B1
Assay: self-cleavage, relative activity (ratio to wild type); higher = more cleavage; co-transcriptional

Q: With GGGGGCCACAGCAGAAGCGGUCACGUCGCGGCCCCUGUCAGAUUCUAGUGAAUCUGCGAAUUCUGCUGU [U20G G47A] as the variant, how does the self-cleavage read?
A: Its self-cleavage is 0.247.

Q: With GGGGGCCACAGCAGAAGCGGUCACGUCGCGGCCCCUGUCAGAUUCUCGUGAAUCUGCGAAUUCUGCUGU [U20G G47C] as the variant, how does the self-cleavage read?
A: Its self-cleavage is 0.189.

Q: With GGGGGCCACAGCAGAAGCGGUCACGUCGCGGCCCCUGUCAGAUUCUUGUGAAUCUGCGAAUUCUGCUGU [U20G G47U] as the variant, how does the self-cleavage read?
A: The self-cleavage was 0.226.

Q: For GGGGGCCACAGCAGAAGCGGUCACGUCGCGGCCCCUGUCAGAUUCUGAUGAAUCUGCGAAUUCUGCUGU [U20G G48A], which self-cleavage is on record?
A: The self-cleavage was 0.127.

Q: With GGGGGCCACAGCAGAAGCGGUCACGUCGCGGCCCCUGUCAGAUUCUGUUGAAUCUGCGAAUUCUGCUGU [U20G G48U] as the variant, how does the self-cleavage read?
A: The self-cleavage was 0.141.

Q: With GGGGGCCACAGCAGAAGCGGUCACGUCGCGGCCCCUGUCAGAUUCUGGUAAAUCUGCGAAUUCUGCUGU [U20G G50A] as the variant, how does the self-cleavage read?
A: The self-cleavage was 0.206.

Q: For GGGGGCCACAGCAGAAGCGGUCACGUCGCGGCCCCUGUCAGAUUCUGGUCAAUCUGCGAAUUCUGCUGU [U20G G50C], which self-cleavage is on record?
A: Its self-cleavage is 0.246.

Q: With GGGGGCCACAGCAGAAGCGGUCACGUCGCGGCCCCUGUCAGAUUCUGGUGAAUCUACGAAUUCUGCUGU [U20G G56A] as the variant, how does the self-cleavage read?
A: Its self-cleavage is 0.191.

Q: With GGGGGCCACAGCAGAAGCGGUCACGUCGCGGCCCCUGUCAGAUUCUGGUGAAUCUCCGAAUUCUGCUGU [U20G G56C] as the variant, how does the self-cleavage read?
A: The self-cleavage was 0.104.

Q: With GGGGGCCACAGCAGAAGCGGUCACGUCGCGGCCCCUGUCAGAUUCUGGUGAAUCUUCGAAUUCUGCUGU [U20G G56U] as the variant, how does the self-cleavage read?
A: Its self-cleavage is 0.199.

Q: For GGGGGCCACAGCAGAAGCGGUCACGUCGCGGCCCCUGUCAGAUUCUGGUGAAUCUGCAAAUUCUGCUGU [U20G G58A], which self-cleavage is on record?
A: The self-cleavage was 0.251.

Q: With GGGGGCCACAGCAGAAGCGGUCACGUCGCGGCCCCUGUCAGAUUCUGGUGAAUCUGCUAAUUCUGCUGU [U20G G58U] as the variant, how does the self-cleavage read?
A: Its self-cleavage is 0.213.

Q: Which self-cleavage does the source give for GGGGGCCACAGCAGAAGCGGUCACGUCGCGGCCCCUGUCAGAUUCUGGUGAAUCUGCGAAUUCUACUGU [U20G G65A] here?
A: Its self-cleavage is 0.155.

Q: For GGGGGCCACAGCAGAAGCGGUCACGUCGCGGCCCCUGUCAGAUUCUGGUGAAUCUGCGAAUUCUUCUGU [U20G G65U], which self-cleavage is on record?
A: The self-cleavage was 0.262.

Q: For GGGGGCCACAGCAGAAGCGGUCACGUCGCGGCCCCUGUCAGAUUCUGGUGAAUCUGCGAAUUCUGCUAU [U20G G68A], which self-cleavage is on record?
A: The self-cleavage was 0.235.

Q: Which self-cleavage does the source give for GGGGGCCACAGCAGAAGCGGUCACGUCGCGGCCCCUGUCAGAUUCUGGUGAAUCUGCGAAUUCUGCUCU [U20G G68C] here?
A: Its self-cleavage is 0.275.

Q: Which self-cleavage does the source give for GGGGGCCACAGCAGAAGCGGACACGUCGCGGCCCCUGUCAGAUUCUGGUGAAUCUGCGAAUUCUGCUGU [U20G U21A] here?
A: The self-cleavage was 0.252.

Q: Which self-cleavage does the source give for GGGGGCCACAGCAGAAGCGGGCACGUCGCGGCCCCUGUCAGAUUCUGGUGAAUCUGCGAAUUCUGCUGU [U20G U21G] here?
A: The self-cleavage was 0.148.

Q: For GGGGGCCACAGCAGAAGCGGUCACGCCGCGGCCCCUGUCAGAUUCUGGUGAAUCUGCGAAUUCUGCUGU [U20G U26C], which self-cleavage is on record?
A: Its self-cleavage is 0.114.

Q: For GGGGGCCACAGCAGAAGCGGUCACGUCGCGGCCCCAGUCAGAUUCUGGUGAAUCUGCGAAUUCUGCUGU [U20G U36A], which self-cleavage is on record?
A: The self-cleavage was 0.13.

Q: For GGGGGCCACAGCAGAAGCGGUCACGUCGCGGCCCCCGUCAGAUUCUGGUGAAUCUGCGAAUUCUGCUGU [U20G U36C], which self-cleavage is on record?
A: The self-cleavage was 0.0978.

Q: For GGGGGCCACAGCAGAAGCGGUCACGUCGCGGCCCCUGACAGAUUCUGGUGAAUCUGCGAAUUCUGCUGU [U20G U38A], which self-cleavage is on record?
A: The self-cleavage was 0.288.

Q: For GGGGGCCACAGCAGAAGCGGUCACGUCGCGGCCCCUGCCAGAUUCUGGUGAAUCUGCGAAUUCUGCUGU [U20G U38C], which self-cleavage is on record?
A: The self-cleavage was 0.185.

Q: For GGGGGCCACAGCAGAAGCGGUCACGUCGCGGCCCCUGUCAGAAUCUGGUGAAUCUGCGAAUUCUGCUGU [U20G U43A], which self-cleavage is on record?
A: Its self-cleavage is 0.0656.

Q: Which self-cleavage does the source give for GGGGGCCACAGCAGAAGCGGUCACGUCGCGGCCCCUGUCAGACUCUGGUGAAUCUGCGAAUUCUGCUGU [U20G U43C] here?
A: The self-cleavage was 0.182.

Q: For GGGGGCCACAGCAGAAGCGGUCACGUCGCGGCCCCUGUCAGAUGCUGGUGAAUCUGCGAAUUCUGCUGU [U20G U44G], which self-cleavage is on record?
A: The self-cleavage was 0.168.

Q: Which self-cleavage does the source give for GGGGGCCACAGCAGAAGCGGUCACGUCGCGGCCCCUGUCAGAUUCAGGUGAAUCUGCGAAUUCUGCUGU [U20G U46A] here?
A: Its self-cleavage is 0.164.

Q: Which self-cleavage does the source give for GGGGGCCACAGCAGAAGCGGUCACGUCGCGGCCCCUGUCAGAUUCCGGUGAAUCUGCGAAUUCUGCUGU [U20G U46C] here?
A: Its self-cleavage is 0.164.

Q: For GGGGGCCACAGCAGAAGCGGUCACGUCGCGGCCCCUGUCAGAUUCUGGAGAAUCUGCGAAUUCUGCUGU [U20G U49A], which self-cleavage is on record?
A: The self-cleavage was 0.26.

Q: Which self-cleavage does the source give for GGGGGCCACAGCAGAAGCGGUCACGUCGCGGCCCCUGUCAGAUUCUGGCGAAUCUGCGAAUUCUGCUGU [U20G U49C] here?
A: Its self-cleavage is 0.173.

Q: For GGGGGCCACAGCAGAAGCGGUCACGUCGCGGCCCCUGUCAGAUUCUGGGGAAUCUGCGAAUUCUGCUGU [U20G U49G], which self-cleavage is on record?
A: The self-cleavage was 0.27.

Q: For GGGGGCCACAGCAGAAGCGGUCACGUCGCGGCCCCUGUCAGAUUCUGGUGAAACUGCGAAUUCUGCUGU [U20G U53A], which self-cleavage is on record?
A: Its self-cleavage is 0.127.

Q: Which self-cleavage does the source give for GGGGGCCACAGCAGAAGCGGUCACGUCGCGGCCCCUGUCAGAUUCUGGUGAACCUGCGAAUUCUGCUGU [U20G U53C] here?
A: Its self-cleavage is 0.222.

Q: Which self-cleavage does the source give for GGGGGCCACAGCAGAAGCGGUCACGUCGCGGCCCCUGUCAGAUUCUGGUGAAGCUGCGAAUUCUGCUGU [U20G U53G] here?
A: The self-cleavage was 0.166.

Q: Which self-cleavage does the source give for GGGGGCCACAGCAGAAGCGGUCACGUCGCGGCCCCUGUCAGAUUCUGGUGAAUCAGCGAAUUCUGCUGU [U20G U55A] here?
A: Its self-cleavage is 0.139.

Q: For GGGGGCCACAGCAGAAGCGGUCACGUCGCGGCCCCUGUCAGAUUCUGGUGAAUCCGCGAAUUCUGCUGU [U20G U55C], which self-cleavage is on record?
A: Its self-cleavage is 0.148.

Q: Which self-cleavage does the source give for GGGGGCCACAGCAGAAGCGGUCACGUCGCGGCCCCUGUCAGAUUCUGGUGAAUCGGCGAAUUCUGCUGU [U20G U55G] here?
A: Its self-cleavage is 0.106.

Q: For GGGGGCCACAGCAGAAGCGGUCACGUCGCGGCCCCUGUCAGAUUCUGGUGAAUCUGCGAACUCUGCUGU [U20G U61C], which self-cleavage is on record?
A: The self-cleavage was 0.19.

Q: Which self-cleavage does the source give for GGGGGCCACAGCAGAAGCGGUCACGUCGCGGCCCCUGUCAGAUUCUGGUGAAUCUGCGAAGUCUGCUGU [U20G U61G] here?
A: The self-cleavage was 0.171.
